# Results: patent US20070128190A1 (GLENMARK PHARMACEUTICALS S A, published 2007)
# T1: GST-human α2 I domain fusion protein (human, UniProt P17301 153-368)
# T1 construct: the reverse primer ends at ...SIEGTV; also called GST-α2 I domain; hα2I; not shown: glutathione S-transferase tag encoded by vector pGEX-2TK
# T1 sequence: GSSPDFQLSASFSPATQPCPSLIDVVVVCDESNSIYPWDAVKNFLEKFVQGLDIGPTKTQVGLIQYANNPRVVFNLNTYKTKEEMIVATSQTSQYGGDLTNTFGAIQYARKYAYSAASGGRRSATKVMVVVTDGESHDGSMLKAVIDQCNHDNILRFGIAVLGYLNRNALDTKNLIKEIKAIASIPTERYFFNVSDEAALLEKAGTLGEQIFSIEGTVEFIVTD
# T2: GST-rhesus α2 I domain fusion protein (rhesus monkey, UniProt P17301 153-368 (human entry))
# T2 construct: also called rhesus GST-α2 I; not shown: glutathione S-transferase tag encoded by vector pGEX-2TK
# T2 sequence: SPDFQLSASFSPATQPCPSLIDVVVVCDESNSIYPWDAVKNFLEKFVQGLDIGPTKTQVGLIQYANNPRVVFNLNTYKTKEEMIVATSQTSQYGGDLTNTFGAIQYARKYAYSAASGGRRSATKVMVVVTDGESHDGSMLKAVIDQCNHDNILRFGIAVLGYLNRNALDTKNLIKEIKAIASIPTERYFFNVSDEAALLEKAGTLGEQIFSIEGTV
# B1: TMC-2206 (antibody, mouse IgG1, V domains shown)
# VH: QVQLKESGPGLVAPSQSLSITCTVSGFSLTNYGIHWVRQPPGKGLEWLGVIWARGFTNYNSALMSRLIITKDNSQSQVFLKMNSLQPDDSATYFCARANDGVYYAMDYWGQGTSVTVSS
# VL: QFVLTQSPAFLSASPGEKVTMTCSANSSVNYIHWYQQKSGTSPKKWIYDTSKLASGVPVRFSGSGSGTSYSLTISSMETEDAATYYCQQWTTNPLTFGAGTRVELK
# notes: murine IgG1/κ secreted by hybridoma BHA2.1; labelled with Eu-N1-ITC where used as tracer; also called BHA2.1
# B2: Humanized TMC-2206 (hIgG4/κ VH12.0/VL10.0Q) (antibody)
# heavy: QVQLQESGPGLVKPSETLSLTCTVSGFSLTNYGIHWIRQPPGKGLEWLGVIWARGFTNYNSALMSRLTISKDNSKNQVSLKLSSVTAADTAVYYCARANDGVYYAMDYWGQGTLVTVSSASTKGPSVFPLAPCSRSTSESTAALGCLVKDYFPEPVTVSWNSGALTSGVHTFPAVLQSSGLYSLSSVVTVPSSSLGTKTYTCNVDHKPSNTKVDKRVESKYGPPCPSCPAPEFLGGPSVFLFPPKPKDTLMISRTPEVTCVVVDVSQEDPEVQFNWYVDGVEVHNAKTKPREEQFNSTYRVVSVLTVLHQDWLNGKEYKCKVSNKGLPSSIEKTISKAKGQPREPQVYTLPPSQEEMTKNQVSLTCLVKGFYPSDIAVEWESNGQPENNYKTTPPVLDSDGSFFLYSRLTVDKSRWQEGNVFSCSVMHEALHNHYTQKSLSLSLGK
# light: DFVMTQSPAFLSVTPGEKVTITCSAQSSVNYIHWYQQKPDQAPKKLIYDTSKLASGVPSRFSGSGSGTDYTFTISSLEAEDAATYYCQQWTTNPLTFGQGTKVEIKRTVAAPSVFIFPPSDEQLKSGTASVVCLLNNFYPREAKVQWKVDNALQSGNSQESVTEQDSKDSTYSLSSTLTLSKADYEKHKVYACEVTHQGLSSPVTKSFNRGEC
# notes: labelled with Eu or Alexa-488 in some assays
# Assays:
# [1] = molecular target: T3, human platelet α2β1 integrin (immobilized on microtiter plates) (human, UniProt P17301 30-1181; P05556 21-798); assay: competition with Eu-TMC-2206 on platelet α2β1-coated plates
# T3 construct: plates custom-coated with human platelet α2β1 by GTI Inc; also called immobilized α2β1 integrin; α2β1-coated plates
# [2] = molecular target: T3, human platelet α2β1 integrin …; assay: competition with Eu-TMC-2206 on human platelet α2β1-coated plate
# [3] = molecular target: human α2 integrin with endogenous hamster β1 on CHO cells (human; hamster); assay: cell-based or functional assay
# [4] = molecular target: rat α2β1 integrin on rat blood cells (rat, UniProt A0A0G2K470 27-1178; P49134 21-798); assay: cell-based or functional assay
# [5] = molecular target: T1, GST-human α2 I domain fusion protein; assay: ELISA, GST fusion protein on immobilized TMC-2206, Kd estimated from EC50
# Experimental: (§1) The fusion proteins were then expressed and purified as described above for the human GST-α2 I domain fusion protein. […] Therefore, these and the primate fusion proteins were further purified by size exclusion chromatography on a Sephadex 75 10/30 (GE-Amersham) column (primate) by FPLC on an Akta-Basic FPLC system (GE-Amersham) to yield a monomeric fraction. […] The Kᵢ assays were performed as described above in Example 2. […] Plates were sealed and coating occurred overnight at 4° C. The next morning, the plates were washed twice with TBS solution and then blocked using 200 μL of the blocking solution described above for 1 hour at room temperature with shaking. After blocking, the blocking solution was removed but the wells were not washed. Instead, a serial dilution of GST fusion protein was made, added to the wells and then incubated for 2 hours at room temperature with shaking. The wells were then aspirated and a TBS washing buffer applied for 5 minutes at room temperature. The washing step was repeated twice more before the secondary antibody was applied. The secondary antibody step consisted of Amersham's HRP-conjugated rabbit anti-GST antibody diluted 1:2000 in blocking buffer. […] The reaction within the wells was then read and quantified by spectrophotometric absorption using the Molecular Dynamics plate reader and associated Softmax software, respectively. […]
# [6] = molecular target: T2, GST-rhesus α2 I domain fusion protein; assay: as above
# Experimental: as §1
# [7] = molecular target: human α2β1 integrin on human cells (platelets, leukocytes, HT1080) (human, UniProt P17301 30-1181; P05556 21-798); assay: cell-based or functional assay
# GST-hα2 I domain K78E = molecular target: T4, GST-hα2 I domain K78E (human, UniProt P08515 1-218 = GST); assay: ELISA, GST fusion protein on immobilized TMC-2206 (Kd apparent)
# T4 construct: same construct as m41
# Experimental: (§2) The fusion proteins were then expressed and purified as described above for the human GST-α2 I domain fusion protein. […] Therefore, these and the primate fusion proteins were further purified by size exclusion chromatography on a Sephadex 75 10/30 (GE-Amersham) column (primate) by FPLC on an Akta-Basic FPLC system (GE-Amersham) to yield a monomeric fraction. […] The Kᵢ assays were performed as described above in Example 2. […] Plates were sealed and coating occurred overnight at 4° C. The next morning, the plates were washed twice with TBS solution and then blocked using 200 μL of the blocking solution described above for 1 hour at room temperature with shaking. After blocking, the blocking solution was removed but the wells were not washed. Instead, a serial dilution of GST fusion protein was made, added to the wells and then incubated for 2 hours at room temperature with shaking. The wells were then aspirated and a TBS washing buffer applied for 5 minutes at room temperature. The washing step was repeated twice more before the secondary antibody was applied. The secondary antibody step consisted of Amersham's HRP-conjugated rabbit anti-GST antibody diluted 1:2000 in blocking buffer. One hundred μL of secondary antibody was added to each well and incubated at room temperature for 1.5 hours with shaking. The wells were again aspirated and washed three times with wash buffer before adding the substrate reaction mixture. One hundred μL of substrate reaction mixture (1:1 dilution of TMB kit) was then added to each well for 6 minutes. The reaction was stopped by adding 100 μL of 0.1M H₂SO₄. The reaction within the wells was then read and quantified by spectrophotometric absorption using the Molecular Dynamics plate reader and associated Softmax software, respectively. Kd values were then estimated from the EC₅₀ values using Prism software (Graphpad, Calif.).
# [8] = molecular target: T1, GST-human α2 I domain fusion protein; assay: as above
# Experimental: as §2
# [9] = molecular target: human α1β1 integrin (immobilized) (human, UniProt P56199 29-1179; P05556 21-798, limits assumed); assay: ELISA on immobilized human α1β1
# Experimental: Human α1β1 integrin (Chemicon International) was diluted in Coating Buffer (25 mM Tris, pH 7.5, 150 mM NaCl, 1 mM MgCl₂) to a final concentration of 0.5 μg/ml. 96-well immunoplates were coated with α1β1 at 50 ng/well and incubated overnight at 4° C. The plates were washed three times with Wash Buffer (50 mM Tris, pH 7.5, 150 mM NaCl, 2 mM MgCl₂, 0.5% Tween-20) and blocked with 5% w/v/skim milk in Wash Buffer for one hour at room temperature. […] Fifty microliters/well of the diluted antibody solutions were added to the α1β1-coated plates, incubated for one hour at room temperature, and then washed three times. […] After a one-hour incubation at room temperature, the plates were washed three times, incubated in substrate solution (1 mg/ml 4-nitrophenyl phosphate, 0.1 M diethanolamine, 5 mM MgCl₂, pH 9.8) for 20 minutes, and terminated with NaOH. The absorbance (405 nm) was read using a Spectramax Plus plate reader using Softmax Pro software. […] The control anti-α1β1 antibody (FB-12) bound to α1β1 with an EC₅₀ of 0.79±0.15 nM.
# Chain of human α2β1 integrin on human cells (platelets, leukocytes, HT1080) (P17301 30-1181 E534K limits assumed, chain 1 of 2): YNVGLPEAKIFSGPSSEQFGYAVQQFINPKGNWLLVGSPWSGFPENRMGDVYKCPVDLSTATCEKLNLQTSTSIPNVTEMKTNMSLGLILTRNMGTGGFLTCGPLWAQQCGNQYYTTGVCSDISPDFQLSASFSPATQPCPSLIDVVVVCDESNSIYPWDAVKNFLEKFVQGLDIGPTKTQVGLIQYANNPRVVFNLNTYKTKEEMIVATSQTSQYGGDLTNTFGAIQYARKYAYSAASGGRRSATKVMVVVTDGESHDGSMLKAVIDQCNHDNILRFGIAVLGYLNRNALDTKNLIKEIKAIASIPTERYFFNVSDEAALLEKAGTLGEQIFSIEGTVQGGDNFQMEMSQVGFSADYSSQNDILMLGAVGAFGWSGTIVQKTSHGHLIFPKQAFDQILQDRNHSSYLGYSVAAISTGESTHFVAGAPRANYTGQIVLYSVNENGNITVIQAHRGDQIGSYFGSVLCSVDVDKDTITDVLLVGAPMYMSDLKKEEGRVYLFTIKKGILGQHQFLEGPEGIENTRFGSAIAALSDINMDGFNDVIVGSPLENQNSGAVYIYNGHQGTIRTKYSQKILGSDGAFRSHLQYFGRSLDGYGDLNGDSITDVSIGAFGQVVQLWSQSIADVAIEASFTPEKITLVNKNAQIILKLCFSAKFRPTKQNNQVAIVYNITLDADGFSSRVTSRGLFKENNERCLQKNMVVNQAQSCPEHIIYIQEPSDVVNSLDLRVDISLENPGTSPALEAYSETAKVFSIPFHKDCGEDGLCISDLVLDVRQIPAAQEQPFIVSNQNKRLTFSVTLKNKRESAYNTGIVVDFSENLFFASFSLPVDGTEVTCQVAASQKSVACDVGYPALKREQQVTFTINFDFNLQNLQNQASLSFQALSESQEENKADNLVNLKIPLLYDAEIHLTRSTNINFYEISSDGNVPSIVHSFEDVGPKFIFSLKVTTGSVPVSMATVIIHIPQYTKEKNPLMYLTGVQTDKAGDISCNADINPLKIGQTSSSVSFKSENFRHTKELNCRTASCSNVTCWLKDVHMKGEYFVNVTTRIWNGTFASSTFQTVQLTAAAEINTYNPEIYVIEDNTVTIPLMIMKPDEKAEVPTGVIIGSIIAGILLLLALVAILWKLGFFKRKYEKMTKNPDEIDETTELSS
# Chain of human α2β1 integrin on human cells (platelets, leukocytes, HT1080) (P05556 21-798 limits assumed, chain 2 of 2): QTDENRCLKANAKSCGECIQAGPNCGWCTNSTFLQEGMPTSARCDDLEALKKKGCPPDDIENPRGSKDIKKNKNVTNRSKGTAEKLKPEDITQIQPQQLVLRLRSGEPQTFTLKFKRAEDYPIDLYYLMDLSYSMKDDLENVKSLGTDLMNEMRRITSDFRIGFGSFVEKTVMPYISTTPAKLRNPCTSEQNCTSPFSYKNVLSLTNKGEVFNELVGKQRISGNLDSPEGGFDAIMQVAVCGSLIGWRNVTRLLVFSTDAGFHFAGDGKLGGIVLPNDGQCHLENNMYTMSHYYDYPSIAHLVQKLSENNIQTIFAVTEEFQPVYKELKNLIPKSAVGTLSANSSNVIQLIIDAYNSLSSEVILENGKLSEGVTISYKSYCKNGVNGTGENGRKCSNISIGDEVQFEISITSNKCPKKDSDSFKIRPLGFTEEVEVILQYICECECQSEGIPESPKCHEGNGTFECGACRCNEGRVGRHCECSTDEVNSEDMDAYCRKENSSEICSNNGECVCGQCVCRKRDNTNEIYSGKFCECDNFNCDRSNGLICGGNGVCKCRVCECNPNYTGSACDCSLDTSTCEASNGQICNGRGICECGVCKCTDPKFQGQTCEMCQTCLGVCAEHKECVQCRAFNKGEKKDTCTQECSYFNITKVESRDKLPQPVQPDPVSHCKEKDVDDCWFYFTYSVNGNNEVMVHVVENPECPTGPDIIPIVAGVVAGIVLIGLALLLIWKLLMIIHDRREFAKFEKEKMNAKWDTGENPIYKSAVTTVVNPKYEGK
# Chain of rat α2β1 integrin on rat blood cells (chain, as listed by the source, chain 1 of 2): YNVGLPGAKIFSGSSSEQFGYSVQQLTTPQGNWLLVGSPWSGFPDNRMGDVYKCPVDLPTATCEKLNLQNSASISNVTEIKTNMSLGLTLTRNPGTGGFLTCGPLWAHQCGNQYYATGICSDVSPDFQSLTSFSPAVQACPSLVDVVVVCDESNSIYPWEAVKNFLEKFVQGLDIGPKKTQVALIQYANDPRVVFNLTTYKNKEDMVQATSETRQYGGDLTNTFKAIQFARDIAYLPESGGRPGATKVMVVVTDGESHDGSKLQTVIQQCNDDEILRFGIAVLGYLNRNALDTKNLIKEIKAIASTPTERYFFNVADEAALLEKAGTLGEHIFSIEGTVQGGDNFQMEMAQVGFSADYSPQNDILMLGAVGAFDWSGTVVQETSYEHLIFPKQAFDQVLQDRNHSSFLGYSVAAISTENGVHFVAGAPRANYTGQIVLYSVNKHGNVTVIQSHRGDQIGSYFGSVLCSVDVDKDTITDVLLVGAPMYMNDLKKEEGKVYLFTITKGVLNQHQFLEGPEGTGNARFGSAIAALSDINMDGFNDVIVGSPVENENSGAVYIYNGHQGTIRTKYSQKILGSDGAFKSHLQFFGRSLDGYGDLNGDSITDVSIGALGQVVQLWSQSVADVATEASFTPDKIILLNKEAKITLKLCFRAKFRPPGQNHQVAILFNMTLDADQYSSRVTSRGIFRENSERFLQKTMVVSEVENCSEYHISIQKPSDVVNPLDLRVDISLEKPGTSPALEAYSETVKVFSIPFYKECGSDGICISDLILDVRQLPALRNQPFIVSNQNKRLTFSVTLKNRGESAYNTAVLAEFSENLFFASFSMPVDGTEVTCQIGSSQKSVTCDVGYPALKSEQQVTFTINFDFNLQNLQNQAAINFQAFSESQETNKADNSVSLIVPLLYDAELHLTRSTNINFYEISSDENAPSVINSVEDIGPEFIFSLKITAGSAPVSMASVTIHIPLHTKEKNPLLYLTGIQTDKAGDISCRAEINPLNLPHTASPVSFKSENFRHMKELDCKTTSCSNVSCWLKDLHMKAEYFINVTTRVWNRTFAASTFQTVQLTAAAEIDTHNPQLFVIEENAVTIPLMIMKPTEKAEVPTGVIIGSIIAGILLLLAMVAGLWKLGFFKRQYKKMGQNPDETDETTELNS
# Chain of rat α2β1 integrin on rat blood cells (P49134 21-798, chain 2 of 2): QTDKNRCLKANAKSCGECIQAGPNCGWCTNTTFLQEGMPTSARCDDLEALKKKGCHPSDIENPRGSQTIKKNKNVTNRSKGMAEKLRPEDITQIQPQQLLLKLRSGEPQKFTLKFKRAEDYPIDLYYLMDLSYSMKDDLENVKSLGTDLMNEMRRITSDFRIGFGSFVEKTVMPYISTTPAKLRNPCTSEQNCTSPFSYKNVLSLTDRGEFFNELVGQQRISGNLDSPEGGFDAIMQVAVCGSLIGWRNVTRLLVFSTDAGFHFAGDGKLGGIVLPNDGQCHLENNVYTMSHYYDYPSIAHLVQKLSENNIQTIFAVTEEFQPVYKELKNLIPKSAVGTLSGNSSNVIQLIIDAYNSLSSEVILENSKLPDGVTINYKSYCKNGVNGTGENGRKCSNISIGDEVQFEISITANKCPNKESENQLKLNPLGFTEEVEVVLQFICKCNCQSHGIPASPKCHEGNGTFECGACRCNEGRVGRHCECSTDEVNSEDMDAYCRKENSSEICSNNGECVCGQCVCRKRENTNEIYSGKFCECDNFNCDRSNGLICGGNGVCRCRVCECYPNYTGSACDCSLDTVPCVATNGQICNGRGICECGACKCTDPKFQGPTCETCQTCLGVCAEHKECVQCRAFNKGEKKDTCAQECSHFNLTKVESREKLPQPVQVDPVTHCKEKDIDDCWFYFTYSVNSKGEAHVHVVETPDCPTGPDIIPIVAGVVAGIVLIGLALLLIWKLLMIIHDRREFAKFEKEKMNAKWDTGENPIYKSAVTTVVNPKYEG
# Chain of human α2 integrin with endogenous hamster β1 on CHO cells (human; hamster) (P17301 30-1181 E534K): as the sequence (P17301 30-1181 E534K limits assumed, chain 1 of 2) above
# T3 sequence (P17301 30-1181 E534K limits assumed, chain 1 of 2): as above
# T3 sequence (P05556 21-798 limits assumed, chain 2 of 2): as the sequence (P05556 21-798 limits assumed, chain 2 of 2) above
binder,measurement,setting,value
B1,Ki,[1],0.11 nM
same,Ki,[2],0.28 nM
same,"EC50, inhibition of adhesion of CHO-α2 cells to collagen Type I",[3],1.2 nM
same,"EC50, inhibition of cell adhesion to collagen",[3],1.5 nM
same,"EC50, inhibiting binding of rat platelets to rat collagen Type I",[4],6.3 nM
same,"fold shift, rat compared to human platelets",[4],~5 fold
same,Kd,[5],0.18 nM
same,Kd,[6],0.04 nM
same,"EC50 (nM), human platelet adhesion to human collagen Type I, ADP 0 µM",[7],1.7 nM
same,"EC50 (nM), human platelet adhesion to human collagen Type I, ADP 20 µM",[7],9.5 nM
same,"EC50 (nM), human platelet adhesion to human collagen Type II, ADP 0 µM",[7],1.9 nM
same,"EC50 (nM), human platelet adhesion to human collagen Type II, ADP 20 µM",[7],27 nM
same,"EC50 (nM), human platelet adhesion to human collagen Type III, ADP 0 µM",[7],1.6 nM
same,"EC50 (nM), human platelet adhesion to human collagen Type III, ADP 20 µM",[7],11 nM
same,"EC50 (nM), human platelet adhesion to human collagen Type IV, ADP 0 µM",[7],10 nM
same,"EC50 (nM), human platelet adhesion to human collagen Type IV, ADP 20 µM",[7],> 1000 nM
same,"EC50 (nM), human platelet adhesion to human collagen Type VI, ADP 0 µM",[7],2.3 nM
same,"EC50 (nM), human platelet adhesion to human collagen Type VI, ADP 20 µM",[7],23 nM
same,Kd,GST-hα2 I domain K78E,0.16 nM
same,Kd,[8],0.31 nM
B2,binding result,[9],no binding
